From patent US20190365894A1 (GMAX BIOPHARM, published 2019)
Numbering of substitutions follows the chain as printed. Each block holds one binder with its values, some of them ahead of it.

Columns and labels:
[1] = molecular target: T1, human endothelin A receptor (hETAR) (human, UniProt P25101 21-427); assay: cell-based or functional assay
T1 sequence: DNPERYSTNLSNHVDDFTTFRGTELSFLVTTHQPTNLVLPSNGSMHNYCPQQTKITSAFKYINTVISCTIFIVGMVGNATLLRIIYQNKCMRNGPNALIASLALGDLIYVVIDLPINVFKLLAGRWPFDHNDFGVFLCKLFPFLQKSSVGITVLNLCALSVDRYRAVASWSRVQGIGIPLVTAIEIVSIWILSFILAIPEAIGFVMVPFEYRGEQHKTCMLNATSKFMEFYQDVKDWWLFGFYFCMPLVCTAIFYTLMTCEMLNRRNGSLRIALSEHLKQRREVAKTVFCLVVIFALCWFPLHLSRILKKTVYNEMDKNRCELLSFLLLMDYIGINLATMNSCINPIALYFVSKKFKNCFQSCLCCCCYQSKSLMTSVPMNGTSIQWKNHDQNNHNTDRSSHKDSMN

[2] = molecular target: T1, human endothelin A receptor (hETAR); assay: FACS on CHO-DHFR-ETAR cells against CHO-DHFR- cells
Method: PBS containing 10 mM EDTA was used to detach and collect 10⁵ CHO-DHFR-hETAR cells into a 1.5 mL EP tube. The supernatant was removed after centrifugation and the negative control sample was resuspended with a loading buffer (PBS, 2% FBS). For the positive control, 200 μL antibody supernatant was added to resuspension cells and incubation at room temperature; the cells were then centrifuged at 1500 rpm to remove the supernatant, washed with a FACS loading buffer and centrifuged again. The cells were resuspended with addition (200 μL/well) of a FITC labeled goat anti-mouse fluorescent antibody at 1:50 dilution (BD Pharmingen) and incubated at room temperature for 30 min in the dark. Supernatant was removed after centrifugation, cells were washed with FACS loading buffer, centrifuged again and resuspended with the loading buffer for analysis.

B2: anti-ETAR antibody A-2 (antibody, V domains shown)
VH: QIQLVQSGAELAKPGASVRMSCETSGYTFTSYWIHWIKERPGQGLEWIGYINPDTDYSEYNQKFKDKARLTADKSSTTAYMELNSLTFDDSAVYYCASAGYYFFDFWGQGTTLTVSS
VL: DIQMTQSPASLSTSVGETVTITCRASENIYSYLAWYQQRQGKSPHLLVNNAKTLAEGVPSRFSGSGSGTHFSLRISGLQPEDFGSYYCQHHYGIPFTFGGGTKLSIKR
notes: also called L2H2
- binding result [2]: binds

B3: anti-ETAR antibody A-9 (antibody, V domains shown)
VH: EVQLQQPGGGLVQPGGSLTLSCATSGFTFSSYGMSWVRQTPAKRLELVATISTNGATANYPDSVKGRFTISRDNAKSTLYLQMRSLKSEDTAMYYCATEKGAMGYWGQGTSVTVSS
VL: DVLMTQTPLSLPVSLGDQASISCRSSQNIVHSTGNTYLEWYLQKPGQSPKLLIYKVSNRFSGVPNRFRGSGSGTDFTLKITRVEAEDLGIYYCFQGSHFPFTFGSGTKLEIKR
- calcium flux assay, inhibition of human ETAR (IC50) [1]: 87.8 nM

Second part, the binder after the results:

- calcium flux assay, inhibition of human ETAR (IC50) [1]: 37.9 nM
B1: anti-ETAR antibody A-1 (antibody, V domains shown)
VH: QVTLKESGPGILQPSQTLSLTCSFSGFSLTTSGLGVAWIRQPSGKGLEWLAHIWSDGDTRYYPALKNRLTISKDSSSNQVFLKIARVDTADTATYYCARMKDDSLYFDNWGQGTIFTVSS
VL: DILLTQSPAILSVSPGKRVSFSCRASQNIGTSIHWYQQRTNGSPRLLIKYASKSISGISSRFSGSGSGTDFTLSINSVESEDIAAYYCQHSYSWPWTFGGGTKLEIKR

- binding result [2]: binds
B4: anti-ETAR antibody A-7 (antibody, V domains shown)
VH: EVHLVESGGGLVQPGGSLKLSCAASGFTFSTYGMSWVRQTPDKRLELVATINTNGGTTYYRDSVKGRFTISRDNAKNTLYLQMSSLKSDDTAMYYCARDYGAMDYWGQGTSVTVSS
VL: B3 VL with Q18H, N28Y, N35T, K50Q, N65D, R68T, K79R, T81S, I90V, Y92F
notes: also called L7H7

- binding result [2]: binds
B5: anti-ETAR antibody A-12 (antibody, V domains shown)
VH: EVKLVESGGRLVQPGNSLRLSCATSGFTFSDYYMSWVRQTPGRALEWLSFIRNRANGYTTEYSASVKGRFTISRDNSQSILYLHMSTLRPEDSATYYCVRDSYHYGYFDVWGAGTTVTVSS
VL: EIQMTQTPSSLSASLGDRVTITCSASQGINNYLNWYQQKPGGKTRLLIYYTSTLQSGVPSRFSGSGSGTHYSLTISNLEPEDIATYYCQQFSKLRTFGGGTRLEIKR
notes: also called L12H12
